In FireProtDB (doi:10.1021/bi020450z):

Conditions: Bos taurus; pH 8.5; Thermal; CD; Glycine; reversible: YES; whole UniProt chain shown

B1: Adrenodoxin, mitochondrial wild type, P00257 (protein)
chain: MAARLLRVASAALGDTAGRWRLLARPRAGAGGLRGSRGPGLGGGAVATRTLSVSGRAQSSSEDKITVHFINRDGETLTTKGKIGDSLLDVVVQNNLDIDGFGACEGTLACSTCHLIFEQHIFEKLEAITDEENDMLDLAYGLTDRSRLGCQICLTKAMDNMTVRVPDAVSDARESIDMGMNSSKIE
For B1, the Tm was 51.9 °C.
